Assay results published in patent US20230256017A1 (published 2023).

T1: CD2 (human, UniProt P06729 25-351)
T1 construct: whole, on cells; also called T-cell surface antigen T11/Leu-5/CD2
T1 sequence (looked up): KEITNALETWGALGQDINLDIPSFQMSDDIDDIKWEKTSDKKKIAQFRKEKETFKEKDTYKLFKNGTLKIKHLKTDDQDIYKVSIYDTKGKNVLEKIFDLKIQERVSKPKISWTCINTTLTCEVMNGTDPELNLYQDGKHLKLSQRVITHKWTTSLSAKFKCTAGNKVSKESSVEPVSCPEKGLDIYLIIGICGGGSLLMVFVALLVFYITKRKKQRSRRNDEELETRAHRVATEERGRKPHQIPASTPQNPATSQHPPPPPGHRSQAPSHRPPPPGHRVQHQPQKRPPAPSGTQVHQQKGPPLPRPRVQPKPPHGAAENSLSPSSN

T2: BCMA (TNFRSF17) (human, UniProt Q02223 1-184, limits assumed)
T2 construct: Member of a commercial human plasma membrane protein array
T2 sequence (looked up): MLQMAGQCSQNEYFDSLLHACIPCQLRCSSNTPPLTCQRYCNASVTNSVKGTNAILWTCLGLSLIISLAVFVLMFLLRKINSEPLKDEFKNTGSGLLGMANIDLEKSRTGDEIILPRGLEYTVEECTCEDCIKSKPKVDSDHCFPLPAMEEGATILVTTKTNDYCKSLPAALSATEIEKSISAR

B1: Construct 1 (bispecific antibody, human IgG1, kappa)
light: DVVMTQSPPSLLVTLGQPASISCRSSQSLLHSSGNTYLNWLLQRPGQSPQPLIYLVSKLESGVPDRFSGSGSGTDFTLKISGVEAEDVGVYYCMQFTHYPYTFGQGTKLEIKRTVAAPSVFIFPPSDEQLKSGTASVVCLLNNFYPREAKVQWKVDNALQSGNSQESVTEQDSKDSTYSLSSTLTLSKADYEKHKVYACEVTHQGLSSPVTKSFNRGEC
heavy: not shown
notes: Anti-CD3 scFv fused to an anti-CD2 Fab, further fused to a wild type Fc; also called F1
B2: Construct 3 (bispecific antibody, human IgG1, kappa)
light: B1 light
heavy: not shown
notes: Anti-CD2 Fab fused to a wild type Fc, further fused to an anti-CD3 scFv; Stated ligand valency of 2; also called F3
B3: Construct 12 (bispecific antibody, human IgG1, kappa)
light: B1 light
heavy 1: QVQLVQSGAEVQRPGASVKVSCKASGYIFTEYYMYWVRQAPGQGLELVGRIDPEDGSIDYVEKFKKKVTLTADTSSSTAYMELSSLTSDDTAVYYCARGKFNYRFAYWGQGTLVTVSSASTKGPSVFPLAPSSKSTSGGTAALGCLVKDYFPEPVTVSWNSGALTSGVHTFPAVLQSSGLYSLSSVVTVPSSSLGTQTYICNVNHKPSNTKVDKRVEPKSCDKTHTCPPCPAPELLGGPSVFLFPPKPKDTLMISRTPEVTCVVVDVSHEDPEVKFNWYVDGVEVHNAKTKPREEQYNSTYRVVSVLTVLHQDWLNGKEYKCKVSNKALPAPIEKTISKAKGQPREPQVCTLPPSREEMTKNQVSLSCAVKGFYPSDIAVEWESNGQPENNYKTTPPVLDSDGSFFLVSKLTVDKSRWQQGNVFSCSVMHEALHNRFTQKSLSLSPGK
heavy 2: not shown
notes: Anti-CD2 Fab-Fc paired with anti-CD3 scFv-Fc-(G4S)3-Matrilin1; also called F12
B4: Construct 15 (bispecific antibody, human IgG1, kappa)
light: B1 light
heavy 1: B3 heavy 1
heavy 2: not shown
notes: Anti-CD2 Fab-Fc paired with anti-CD3 scFv-Fc-(G4S)-COMPcc; also called F15
B5: Construct 5 (bispecific antibody)
light: B1 light
heavy: not shown
notes: Anti-CD2 Fab fused to an anti-CD3 scFv, further fused to an Fc; Stated ligand valency of 2; also called F5
B6: Construct 7 (bispecific antibody)
light: B1 light
heavy: not shown
notes: Anti-CD3 scFv fused to an Fc, further fused to an anti-CD2 Fab; Stated ligand valency of 2; also called F7
B7: anti-human BCMA single chain antibody variable fragment (scFv) (PI61) (scFv)
scFv: QVQLQESGGGVVQPGRSLRLSCAASGFTFSSYGMHWVRQAPGKGLEWVAVISYDGSNKYYADSVKGRFTISRDNSKNTLYLQMNSLRAEDTAVYYCGGSGYALHDDYYGLDVWGQGTLVTVSSGGGGSGGGGSGGGGSQSALTQPASVSGSPGQSITISCTGTSSDVGGYNYVSWYQQHPGKAPKLMIYDVSNRPSGVSNRFSGSKSGNTASLTISGLQAEDEADYYCSSYTSSSTLYVFGSGTKVTVL
notes: also called PI61 scFv

What was measured:
CD2 = target: T1, CD2; test: legend of FIG. 55 (CAR transduction of donor T cells by costimulatory molecule targeted); no direct binding assay
BCMA (TNFRSF17) = target: T2, BCMA (TNFRSF17); test: commercial human plasma membrane protein array

| Binder | binding result (CD2) | binding result (BCMA (TNFRSF17)) |
| --- | --- | --- |
| B1 | binds |  |
| B2 | binds |  |
| B3 | binds |  |
| B4 | binds |  |
| B5 | binds |  |
| B6 | binds |  |
| B7 |  | binds |
